# Assay results: PMC9204161
# pKd: −log10 of the molar value.
# Target: biotin-ahx-ahx-EPQpYEEIPIYL (biotinylated pTyr peptide derived from the protein MidT)
# Assay: BLI; Octet RED96 (ForteBio); biotinylated peptides immobilised on a streptavidin biosensor; SH2 variants at 300, 150 and 0 nM
substance,measurement,value
"SH2-WT (wild-type Fyn SH2 domain), 6xHis-tagged protein (from UniProt P06241 149-246) (domain or fragment)",pKd,6.57
